Measurements taken from patent publication US20090075929A1 (BOARD OF TRUSTEES OF THE UNIVERSITY OF ILLINOIS, published 2009).

Legend:
[1] = target: T1, wild-type MADD (wtMADD), YFP-tagged, expressed in HEK293 or HeLa cells (Homo sapiens (Human), UniProt Q8WXG6 1-1647, phosphorylated in cells at S70, T173 and T1041 (recognized by anti-phospho S70, T173 and T1041 antibodies)); assay: co-IP from HeLa cells expressing MADD-YFP, western blot
T1 construct: Exogenous MADD detected with anti-YFP antibody; Order of MADD and YFP is uncertain; also called YFP-MADD; exogenous MADD; not shown: YFP tag
From the text: (§1) These proteins were separated by SDS-PAGE and subjected to western blot analysis to probe for DISC components.
(§2) Samples were lysed, and the lysates were normalized for protein concentration and pre-cleared. […] Complexes were subjected to immunoblotting (WB, Western blot).

[2] = target: T2, DR4 (death receptor 4, a TRAIL receptor), endogenous (UniProt O00220 24-468); assay: IP of DR4 from HeLa lysates, immunoblot for FADD
T2 construct: Endogenous protein immunoprecipitated or blotted from lysates of human cell lines; also called endogenous DR4; DRs
From the text: DR4 and DR5 from HeLa and PA-1 cells respectively were immunoprecipitated and probed for known DISC components. […] Forty-eight-hour transduced HeLa cells and PA-1 cells were collected and lysed. Lysates were normalized for protein concentration, and DR4s/DR5s were immunoprecipitated using specific antibodies.

[3] = target: T1, wild-type MADD (wtMADD), YFP-tagged, …; assay: co-IP with anti-IG20 antibody from HeLa cells expressing MADD-YFP, western blot; also not seen in the reverse IP with anti-caspase-8
From the text: as §1, §2

| Binder | binding result [1] | binding result [2] | binding result [3] |
| --- | --- | --- | --- |
| FADD, endogenous (other, UniProt Q13158 1-208, looked up) MDPFLVLLHSVSSSLSSSELTELKFLCLGRVGKRKLERVQSGLDLFSMLLEQNDLEPGHTELLRELLASLRRHDLLRRVDDFEAGAAAGAAPGEEDLCAAFNVICDNVGKDWRRLARQLKVSDTKIDSIEDRYPRNLTERVRESLRIWKNTEKENATVAHLVGALRSCQMNLVADLVQEVQQARDLQNRSGAMSPMSWNSDASTSEAS | no binding | binds |  |
| caspase-8 (pro-caspase-8, p55/53), endogenous (enzyme, UniProt Q14790 1-479, looked up) MDFSRNLYDIGEQLDSEDLASLKFLSLDYIPQRKQEPIKDALMLFQRLQEKRMLEESNLSFLKELLFRINRLDLLITYLNTRKEEMERELQTPGRAQISAYRVMLYQISEEVSRSELRSFKFLLQEEISKCKLDDDMNLLDIFIEMEKRVILGEGKLDILKRVCAQINKSLLKIINDYEEFSKERSSSLEGSPDEFSNGEELCGVMTISDSPREQDSESQTLDKVYQMKSKPRGYCLIINNHNFAKAREKVPKLHSIRDRNGTHLDAGALTTTFEELHFEIKPHDDCTVEQIYEILKIYQLMDHSNMDCFICCILSHGDKGIIYGTDGQEAPIYELTSQFTGLKCPSLAGKPKVFFIQACQGDNYQKGIPVETDSEEQPYLEMDLSSPQTRYIPDEADFLLGMATVNNCVSYRNPAEGTWYIQSLCQSLRERCPRGDDILTILTEVNYEVSNKDDKKNMGKQMPQPTFTLRKKLVFPSD |  |  | no binding |
